Where two headings read alike, the source gives them in different places.
B1: RBD-1-2G-Fc (Fc fusion)
chain: EVQLVESGGGLVQPGGSLRLSCAASGFSSIVYMGWFRQAPGKGRELVAAIDASGSTTNYPDSVEGRFTISRDNAKRMVYLQMNSLRAEDTAVYYCAIAYFTSPEYVVSQGWGQGTQVTVSS
notes: also called bivalent format of RBD-1-2G
B2: single-domain antibody RBD-1-2G (VHH)
VHH: B1 chain
notes: also called RBD-1-2G Nb; RBD-1-2G nanobody
B3: RBD-1-2G-Tri (bispecific antibody)
chain: EVQLVESGGGLVQPGGSLRLSCAASGFSSIVYMGWFRQAPGKGRELVAAIDASGSTTNYPDSVEGRFTISRDNAKRMVYLQMNSLRAEDTAVYYCAIAYFTSPEYVVSQGWGQGTQVTVSSGGGGSGGGGSGGGGSEVQLVESGGGLVQPGGSLRLSCAASGFSSIVYMGWFRQAPGKGRELVAAIDASGSTTNYPDSVEGRFTISRDNAKRMVYLQMNSLRAEDTAVYYCAIAYFTSPEYVVSQGWGQGTQVTVSSGGGGSGGGGSGGGGSEVQLVESGGGLVQPGGSLRLSCAASGFSSIVYMGWFRQAPGKGRELVAAIDASGSTTNYPDSVEGRFTISRDNAKRMVYLQMNSLRAEDTAVYYCAIAYFTSPEYVVSQGWGQGTQVTVSSHHHHHH

Columns and labels:
[1] = target: SARS-COV-2 S protein, variant B1.1.7 (Alpha), on MLV pseudotyped particles (SARS-COV-2, UniProt P0DTC2 14-1254); assay: cell-based or functional assay
[2] = target: T1, RBD-His (SinoBiological, 40592-V08H) (SARS-COV-2, UniProt P0DTC2 319-541)
[3] = target: T2, RBD-mFc recombinant protein (Sino Biological, 40592-V05H) (SARS-COV-2, UniProt P0DTC2 319-541); assay: BLI (Octet), RBD-mFc as load, 1-2G-Fc as analyte, global fit (FIG. 11C)
T2 construct: domain: RBD

[4] = target: T1, RBD-His (SinoBiological, 40592-V08H); remark: listed apart in the source
[5] = target: T2, RBD-mFc recombinant protein (Sino …); assay: BLI (Octet), 1-2G-Fc as load, RBD-mFc as analyte, global fit (FIG. 11A)
[6] = target: T1, RBD-His (SinoBiological, 40592-V08H)
[7] = target: T1, RBD-His (SinoBiological, 40592-V08H); remark: listed apart in the source
[8] = target: T2, RBD-mFc recombinant protein (Sino …)
[9] = target: T3, S1-hFc recombinant protein (Sino Biological, printed 4059I-V02H) (SARS-COV-2, UniProt P0DTC2 16-685)
[10] = target: T2, RBD-mFc recombinant protein (Sino …); remark: listed apart in the source
[11] = target: T3, S1-hFc recombinant protein (Sino …); remark: listed apart in the source
[12] = target: T1, RBD-His (SinoBiological, 40592-V08H); remark: listed apart in the source

Binder | IC50, pseudotyped particle entry assay, B.1.1.7 particles [1] [nM] | Kd [2] [nM] | koff [3] [s⁻¹] | kon [3] [M⁻¹ s⁻¹] | koff [4] [s⁻¹] | kon [4] [M⁻¹ s⁻¹] | koff [5] [s⁻¹] | kon [5] [M⁻¹ s⁻¹] | Kd [6] [nM] | koff [7] [s⁻¹] | kon [7] [M⁻¹ s⁻¹] | Kd [8] [nM] | Kd [9] [nM] | koff [10] [s⁻¹] | kon [10] [M⁻¹ s⁻¹] | koff [11] [s⁻¹] | kon [11] [M⁻¹ s⁻¹] | koff [12] [s⁻¹] | kon [12] [M⁻¹ s⁻¹]
B1 | 17.5 | 1.9 | 0.0005 | 73000 | 0.00018 | 91000 | 0.0017 | 83000 | – | – | – | – | – | – | – | – | – | – | –
B2 | 746 | – | – | – | – | – | – | – | 14.3 | 0.0011 | 752000 | 9.4 | 6.9 | 0.00024 | 25400 | 0.0002 | 29500 | – | –
B3 | 0.3 | 0.1 | – | – | – | – | – | – | – | – | – | – | – | – | – | – | – | 7e-05 | 600000

Source: patent US20240401239A1 (US Dept. of Health and Human Services, published 2024)
